Ends that are not written are not given here.
Target: N-methyl-D-aspartate (NMDA) receptor (rat)
Test: cell-based or functional assay

intrinsic activity relative to D-serine, pharmacologically isolated NMDA receptor current in the hippocampal slice assay: 23%
B1: GLYX-13 (L-threonyl-L-prolyl-L-prolyl-L-threonine amide) (peptide)
peptide: TPPT-NH2

From patent US10167314 (NORTHWESTERN UNIVERSITY, dated 2019)
